The record followed here is publication PMC11215065, “The HHV-6B U20 glycoprotein binds ULBP1, masking it from recognition by NKG2D and interfering with natural killer cell activation” (Frontiers in Immunology, 2024).

This experiment concerns the target T1, Soluble U20 extracellular domain (sU20) of HHV-6B (HHV-6B, nine N-linked glycosylation sites with high mannose glycans; after EndoH a single GlcNAc at each site).
T1 construct: HHV-6B U20 glycoprotein, extracellular domain; Dimer in solution when alone (SEC-MALS, SEC-SAXS); Used glyco-intact or EndoH-treated, as told for each assay; also called soluble recombinant U20; source: stably transduced HEK293 GnTI cells, purified from supernatant (Nickel-NTA, cation exchange, SEC); in some cases treated with EndoH; not shown: 6xHIS, C-terminal, kept
The experiment is described as follows: SPR; Biacore 3000; biotinylated ULBP1-Fc (1000-2500 RU) on a Neutravidin coated CM5 chip; U20 injected at 0.125-32 μM; CD200 receptor Fc flow cell subtracted; equilibrium fit, one site specific binding, apparent; 20°C. To be noted: both partners purified. (Surface plasmon resonance follows binding to a sensor surface in real time, without labels.)

B1: ULBP1-Fc (Fc fusion)
chain: GWVDTHCLCYDFIITPKSRPEPQWCEVQGLVDERPFLHYDCVNHKAKAFASLGKKVNVTKTWEEQTETLRDVVDFLKGQLLDIQVENLIPIEPLTLQARMSCEHEAHGHGRGSWQFLFNGQKFLLFDSNNRKWTALHPGAKKMTEKWEKNRDVTMFFQKISLGDCKMWLEEFLMYWEQMLDPTKPPSLAPG
modifications: biotin on the BirA recognition sequence (for SPR)
As to B1, the Kd is roughly 230 nM.
